The target in data set [1] is T1, RhGAI1 (C-terminal fragment with binding domain) (rose, UniProt M9XGL2 238-618).
T1 sequence: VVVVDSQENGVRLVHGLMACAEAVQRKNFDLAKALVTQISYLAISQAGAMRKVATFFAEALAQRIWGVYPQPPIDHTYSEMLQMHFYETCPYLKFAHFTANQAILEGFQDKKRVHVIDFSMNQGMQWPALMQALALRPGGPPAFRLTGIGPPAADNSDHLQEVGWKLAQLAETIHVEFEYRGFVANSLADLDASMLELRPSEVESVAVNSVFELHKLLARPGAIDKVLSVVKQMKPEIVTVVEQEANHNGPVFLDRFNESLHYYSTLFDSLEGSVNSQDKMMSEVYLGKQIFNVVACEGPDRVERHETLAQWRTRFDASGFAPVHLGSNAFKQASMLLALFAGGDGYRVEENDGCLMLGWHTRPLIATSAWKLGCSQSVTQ
In words: EMSA; competed by unlabelled probe; EMSA per Wang et al. 2011, LightShift chemiluminescent kit (Pierce); 1 ug recombinant protein, 2 nM biotin-labelled probe; buffer, salt, pH and temperature not. The conditions noted are these: tags: GST (pGEX-2T), label: biotin, blunt. A general note: Mobility shift assays separate free from complexed probe on a gel.

Data set [2] concerns the target T2, RhEIN3-3 (N-terminal fragment with DNA-binding domain) (rose, UniProt M9XFM8 141-356).
T2 sequence: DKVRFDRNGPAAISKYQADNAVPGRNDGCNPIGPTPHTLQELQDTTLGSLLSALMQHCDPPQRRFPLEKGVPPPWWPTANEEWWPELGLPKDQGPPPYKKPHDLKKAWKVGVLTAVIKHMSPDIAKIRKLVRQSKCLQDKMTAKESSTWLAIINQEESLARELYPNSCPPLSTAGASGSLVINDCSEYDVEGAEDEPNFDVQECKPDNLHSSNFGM
The data set is described as above. The conditions noted are these: tags: GST (pGEX-2T), chain copies: 2, label: biotin, blunt.

Data set [3] addresses T2, RhEIN3-3 (N-terminal fragment with …). In words: competition; mutated competitor vs biotin-labelled N1; EMSA per Wang et al. 2011, LightShift chemiluminescent kit (Pierce); 1 ug recombinant protein, 2 nM biotin-labelled probe; buffer, salt, pH and temperature not. To be noted: tags: GST (pGEX-2T), chain copies: 2.
In data set [4] the target is T1, RhGAI1 (C-terminal fragment with …). In words: competition; mutated competitor vs biotin-labelled N3; EMSA per Wang et al. 2011, LightShift chemiluminescent kit (Pierce); 1 ug recombinant protein, 2 nM biotin-labelled probe; buffer, salt, pH and temperature not. The conditions noted are these: tags: GST (pGEX-2T).

B1: proRhCesA2 probe (dsDNA)
DNA 1: GCAGAGGGCTAATTTAGTCGGTGGAGAT
DNA 2: ATCTCCACCGACTAAATTAGCCCTCTGC
For B1, in data set [1], the binding result is on record as “binds”.

B2: proRhGAI1 probe (dsDNA)
DNA 1: CGTTTTATACTAATTCAAAGGTATTAA
DNA 2: TTAATACCTTTGAATTAGTATAAAACG
With B2, the binding result in data set [2] is “binds”.

B3: proRhGAI1 mutated probe (dsDNA)
DNA 1: CAGTCACGTTTTATACTCAGTAAGAGGTATTAAAATTCTAGAG
DNA 2: CTCTAGAATTTTAATACCTCTTACTGAGTATAAAACGTGACTG
On to B3, for which the binding result in data set [3] is recorded as “no binding”.

B4: proRhCesA2 mutated probe (dsDNA)
DNA 1: GCAGAGGGCTGACTCAGTCGGTGGAGATTT
DNA 2: AAATCTCCACCGACTGAGTCAGCCCTCTGC
As to B4, the binding result in data set [4] is “no binding”.

These data come from PMC3830487, “A DELLA gene, RhGAI1, is a direct target of EIN3 and mediates ethylene-regulated rose petal cell expansion via repressing the expression of RhCesA2”.
